Consider one protein from publication doi:10.1101/2020.04.03.023861 (bioRxiv, 2020).

This data set deals with the molecule itself. Nature of the data set: detergent-resistant band of doubled size on SDS-PAGE and western blot.

B1: TMEM70-FLAG (natural protein, human, UniProt Q9BUB7 82-260, looked up)
chain: LNTPSDKSEDGRLIYTGNMARAVFGVKCFSYSTSLIGLTFLPYIFTQNNAISESVPLPIQIIFYGIMGSFTVITPVLLHFITKGYVIRLYHEATTDTYKAITYNAMLAETSTVFHQNDVKIPDAKHVFTTFYAKTKSLLVNPVLFPNREDYIHLMGYDKEEFILYMEETSEEKRHKDDK
By stoichiometry N is commonly meant the number of molecules, sites or subunits per partner or assembly. Consider B1, for which the “stoichiometry N” value was 2.
